Measured values published in patent US20240018513A1, “SYNTHETIC INTRONS FOR TARGETED GENE EXPRESSION” (FRED HUTCHINSON CANCER CENTER, priority 2020, published 2024).

Experiments:
SF3B1-mutant K562 cells = assay: Mini-screen: pooled synthetic intron mini-library in HSV-TK, GCV treatment, full-length intron sequencing from genomic DNA; assay type: cell-based; details: genotype K700E (SF3B1+/K700E) K562; GCV 100 ug/mL; day 6; vector hPGK-PuroR-P2A-HSV-TK
Source text: (§1) Therefore, a massively parallel splicing assay was developed to map and functionally interrogate key sequence features within the synthetic intron. First, a pilot mini-library of eight synthetic introns was synthesized, seven of which were much shorter (lengths of 100-158 nt) than the parent synthetic intron (synMTERFD3i1-250), and each with one or more perturbations to potentially critical features (FIG. 2E). This mini-library was cloned into HSV-TK, introduced into WT or SF3B1-mutant K562 cells with a lentiviral vector at a low multiplicity of infection, and treated with GCV. Relative depletion of each construct was measured by high-throughput sequencing of the entire introns from genomic DNA after six days of treatment (TABLE 1).
(§2) Each synthetic intron used in the mini-library was ordered individually as a gBlock (Integrated DNA Technologies), consisting of the desired intron flanked by homology arms for cloning (5′ arm: […] (SEQ ID NO:158); 3′ arm: […] (SEQ ID NO:159; TABLE 3). The gBlocks were then mixed in equal proportions before being cloned into hPGK-PuroR-P2A-HSV-TK using a previously published strategy for pooled cloning (Thomas, J. D. et al. RNA isoform screens uncover the essentiality and tumor-suppressor activity of ultraconserved poison exons. Nature genetics 52, 84-94 (2020), incorporated herein by reference in its entirety). This intron mix was then amplified using NEBNext High Fidelity Ready Mix (New England Biolabs) and purified using 1.8×AMPure XP SPRI beads (Beckman Coulter). The backbone for the library was amplified using Q5 polymerase (New England Biolabs). The library was transformed and amplified using Endura ElectroCompetent Cells (Lucigen, 60242-2) and large LB plates. The library was maxiprepped using a Macherey-Nagel MaxiPrep kit (Thermo Fisher Scientific, Cat 740414.10).
(§3) WT or SF3B1-mutant K562 cells were infected with lentivirus encoding the mini-library at an MOI of 0.3 and untreated or treated with GCV (100 ug/mL) for 6 days. Genomic DNA was collected at day 6 and the resulting Illumina libraries were sequenced with 2×150 bp reads (Illumina MiSeq). Depletion/enrichment of each construct was estimated as follows. For each sample, reads were normalized to the total reads mapped. The relative fraction of reads mapping to each intron was then estimated by dividing the numbers of normalized reads mapped to an intron by the total reads mapped in the sample. The standard deviation was calculated using the sample proportion P for each intron (σ=sqrt [P(1−P)/n]). A fold-change was calculated for each intron by dividing the proportion of the intron in the treated GCV samples by the fraction of the intron in the untreated samples. Error propagation was used to estimate the standard deviation. The final relative fold-changes were computed by normalizing fold-changes such that the fold-change of synMTERFD3i1-250 in the pilot screen was identical to the experimentally measured fold-change in a single-construct experiment (FIG. 2C, 100 μg/mL of GCV).

WT K562 cells = assay: as above; assay type: cell-based; details: genotype WT (SF3B1+/+) K562; GCV 100 ug/mL; day 6; vector hPGK-PuroR-P2A-HSV-TK
Source text: as §1, §2, §3

T47D cells = assay: T47D subcutaneous xenografts, doxycycline-inducible SF3B1 WT or K700E, GCV or PBS; assay type: in vivo, NSG mice; details: GCV vs PBS

B1: intron_26: 150 nt MTERFD3 intron 1-derived synthetic intron, deletion 25to125; SEQ ID NO 58/66 (nucleic acid)
DNA 1: GTGAGTCGCCCCCTTCCTCTGCTCCGAGAGGGAAATGGGAATTAGGGTGGTGGCAGAGCCCAAAGAGGCCTTGTAGGCCATGGTAAGGCATTTCTATGTTTTATTTTACTTTGTCTTTATCCTAAAATGCCATTGGCAAGTTTATTGCAG
DNA 2: B1 DNA 1
**Q.** With B1 as the molecule, how does the “fold-change (estimated fold-change in intron abundance in gDNA)” value (SF3B1-mutant K562 cells) read?
**A.** 0.282

**Q.** What about the “fold-change (estimated fold-change in intron abundance in gDNA)” value (WT K562 cells) of the same molecule?
**A.** 1.034

**Q.** And the “tumor burden (tumor volume)” value (T47D cells)?
**A.** specifically reduced tumor burden in the GCV-treated arm engrafted with SF3B1K700E-expressing cells
